{
  "source": "patent US20100204105A1",
  "about": "(ZEALAND PHARMA A S, published 2010)",
  "key": {"[1]": {"biological_target": "human glucagon receptor (Glucagon-R) (human, UniProt P47871 26-477)", "sequence (P47871 26-477)": "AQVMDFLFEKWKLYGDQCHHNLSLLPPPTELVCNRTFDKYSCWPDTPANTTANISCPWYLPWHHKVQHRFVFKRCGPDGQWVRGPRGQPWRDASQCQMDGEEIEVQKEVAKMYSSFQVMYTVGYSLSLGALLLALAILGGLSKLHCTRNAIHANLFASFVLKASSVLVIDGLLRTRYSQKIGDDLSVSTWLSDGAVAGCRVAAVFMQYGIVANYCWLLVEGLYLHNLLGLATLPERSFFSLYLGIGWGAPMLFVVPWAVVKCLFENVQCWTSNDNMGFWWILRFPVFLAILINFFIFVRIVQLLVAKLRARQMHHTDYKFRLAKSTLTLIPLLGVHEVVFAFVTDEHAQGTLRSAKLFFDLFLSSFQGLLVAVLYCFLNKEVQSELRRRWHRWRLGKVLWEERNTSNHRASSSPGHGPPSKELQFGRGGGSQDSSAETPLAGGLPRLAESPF", "assay": "cell-based or functional assay"}, "[2]": {"biological_target": "human glucagon-like peptide 1 receptor (GLP-1R) (human, UniProt P43220 24-463)", "assay": "cell-based or functional assay"}},
  "data": [
    {"binder": "H-HSQGTFTSDYSKYLDRARADDFVAWLKST-NH2", "note": "[Compound 3 (H-HSQGTFTSDYSKYLDRARADDFVAWLKST-NH2)]", "values": [
      {"measurement": "EC50, cAMP content in HEK293 cells expressing hGlucagon-R (FlashPlate cAMP kit)", "setting": "[1]", "value": 7.3, "unit": "µM"},
      {"measurement": "EC50, cAMP content in HEK293 cells expressing hGlucagon-R (FlashPlate cAMP kit), re-test", "setting": "[1]", "value": 0.00049, "unit": "µM"},
      {"measurement": "EC50, cAMP content in HEK293 cells expressing hGLP-1-R (FlashPlate cAMP kit)", "setting": "[2]", "value": 9.3, "unit": "µM"}
    ]}
  ]
}
